Experimental data taken from patent publication US20150197564A1 (Regeneron, published 2015).

T1: hANGPTL3(17-460)-His (human, UniProt Q9Y5C1 17-460)
T1 construct: Bought protein (R&D Systems); also called full-length mature human ANGPTL3 with a C-terminal decahistidine tag; Human ANGPTL3 (17-460)-His
T1 sequence: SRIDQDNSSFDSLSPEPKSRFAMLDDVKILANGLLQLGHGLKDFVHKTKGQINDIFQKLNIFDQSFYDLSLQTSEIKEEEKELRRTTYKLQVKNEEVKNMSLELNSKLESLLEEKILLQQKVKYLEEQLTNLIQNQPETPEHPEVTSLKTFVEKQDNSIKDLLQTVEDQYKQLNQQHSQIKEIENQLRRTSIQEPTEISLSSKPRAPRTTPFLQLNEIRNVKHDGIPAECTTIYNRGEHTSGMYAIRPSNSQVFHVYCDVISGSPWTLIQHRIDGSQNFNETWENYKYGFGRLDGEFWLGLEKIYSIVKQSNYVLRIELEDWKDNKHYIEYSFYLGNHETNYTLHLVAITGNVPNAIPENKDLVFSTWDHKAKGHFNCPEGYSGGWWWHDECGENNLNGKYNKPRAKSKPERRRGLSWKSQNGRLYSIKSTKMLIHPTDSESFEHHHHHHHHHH

T2: hANGPTL3(17-169)-mFc (human)
T2 construct: also called N-terminal coiled-coil domain of hANGPTL3 with a C-terminal mouse Fc fusion
T2 chain: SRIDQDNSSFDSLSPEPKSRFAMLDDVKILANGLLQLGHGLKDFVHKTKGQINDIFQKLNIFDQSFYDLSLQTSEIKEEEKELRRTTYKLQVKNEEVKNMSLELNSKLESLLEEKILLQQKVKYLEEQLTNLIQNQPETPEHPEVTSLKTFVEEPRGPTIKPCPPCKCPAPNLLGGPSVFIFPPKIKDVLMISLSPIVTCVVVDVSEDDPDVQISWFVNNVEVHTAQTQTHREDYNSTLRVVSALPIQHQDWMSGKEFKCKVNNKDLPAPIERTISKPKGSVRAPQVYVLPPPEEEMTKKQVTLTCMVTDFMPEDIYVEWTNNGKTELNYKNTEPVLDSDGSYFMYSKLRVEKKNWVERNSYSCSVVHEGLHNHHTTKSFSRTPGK

T3: bovine LPL (bovine, UniProt P11151 29-478, limits assumed)
T3 sequence (looked up): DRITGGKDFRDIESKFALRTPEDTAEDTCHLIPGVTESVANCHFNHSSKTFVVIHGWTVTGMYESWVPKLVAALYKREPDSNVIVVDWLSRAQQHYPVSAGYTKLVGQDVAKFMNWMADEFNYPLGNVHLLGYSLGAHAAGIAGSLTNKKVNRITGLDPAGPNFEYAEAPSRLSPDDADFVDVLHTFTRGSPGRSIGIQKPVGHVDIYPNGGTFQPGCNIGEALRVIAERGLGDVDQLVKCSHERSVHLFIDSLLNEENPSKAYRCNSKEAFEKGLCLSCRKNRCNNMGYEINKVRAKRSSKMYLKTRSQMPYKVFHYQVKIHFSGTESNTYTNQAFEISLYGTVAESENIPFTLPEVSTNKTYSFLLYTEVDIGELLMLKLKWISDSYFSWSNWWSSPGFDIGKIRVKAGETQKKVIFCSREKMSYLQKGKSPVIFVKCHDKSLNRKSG

B1: H4H1250P (antibody, IgG4, V domains shown)
VH: QVQLVESGGGVVQPGRSLRLSCAASGFTFSSYGMHWVRQAPGKGLEWVAVISNDGSNKYYVDSVKGRFTMGRDNSKNTLYLQMNSLRVEDTAVYYCAKGAGTLYYYYYGMDVWGQGTTVTVSS
VL: DIQMTQSPSTLSASVGNRVTITCRASQSISSWLAWYQQKPGKAPKFLIYKASSLESGVPSRFSGSGSGTEFTLTITSLQPDDFATYYCQQYNIYSWTFGQGTKVEIK
B2: mANGPTL3(17-455)-His (other)
chain: SRVDPDLSSFDSAPSEPKSRFAMLDDVKILANGLLQLGHGLKDFVHKTKGQINDIFQKLNIFDQSFYDLSLRTNEIKEEEKELRRTTSTLQVKNEEVKNMSVELNSKLESLLEEKTALQHKVRALEEQLTNLILSPAGAQEHPEVTSLKSFVEQQDNSIRELLQSVEEQYKQLSQQHMQIKEIEKQLRKTGIQEPSENSLSSKSRAPRTTPPLQLNETENTEQDDLPADCSAVYNRGEHTSGVYTIKPRNSQGFNVYCDTQSGSPWTLIQHRKDGSQDFNETWENYEKGFGRLDGEFWLGLEKIYAIVQQSNYILRLELQDWKDSKHYVEYSFHLGSHETNYTLHVAEIAGNIPGALPEHTDLMFSTWNHRAKGQLYCPESYSGGWWWNDICGENNLNGKYNKPRTKSRPERRRGIYWRPQSRKLYAIKSSKMMLQPTTHHHHHHHHHH
B3: hANGPTL4(26-148)-mFc (Fc fusion)
chain: GPVQSKSPRFASWDEMNVLAHGLLQLGQGLREHAERTRSQLSALERRLSACGSACQGTEGSTDLPLAPESRVDPEVLHSLQTQLKAQNSRIQQLFHKVAQQQRHLEKQHLRIQHLQSQFGLLDEPRGPTIKPCPPCKCPAPNLLGGPSVFIFPPKIKDVLMISLSPIVTCVVVDVSEDDPDVQISWFVNNVEVHTAQTQTHREDYNSTLRVVSALPIQHQDWMSGKEFKCKVNNKDLPAPIERTISKPKGSVRAPQVYVLPPPEEEMTKKQVTLTCMVTDFMPEDIYVEWTNNGKTELNYKNTEPVLDSDGSYFMYSKLRVEKKNWVERNSYSCSVVHEGLHNHHTTKSFSRTPGK
B4: H4H1279P (antibody, IgG4, V domains shown)
VH: QVQLVESGGGLVKPGGSLRLSCAASGFTFSDYYMSWIRQAPGKGLEWVSYIGSSGVNMYYADSVKGRFTISRDNAKNSLYLEMNSLRAEDTAVYYCARDSSQLGFDYWGQGTLVTVSS
VL: DIQMTQSPSSLSASVGDRVTITCRTSQNIINFLNWYQQKPGKAPKLLIYTTSTLQSGVPSRFSGSGSGTDFTLSINSLQPEDFATYFCQQTYSNPLTFGGGTKLEIKR
B5: H4H1292P (antibody, IgG4, V domains shown)
VH: QVQLVESGGGLVKPGGSLRLSCAASGFTFSDYYMSWIRQAPGKGLEWVSYISSSGSTIYYADSVKGRFTISRDNAKNSLYLQMNSLRAEDTAVYYCARDSSQLGFDYWGQGTLVTVSS
VL: DIQMTQSPSSLSASVGDRVTITCRASQSIISFLNWYQQKPGKAPKLLIYTASSLQSGVPSRFSGSGSGTDFTLTISSLQPEDFATYYCQQTYSNPLTFGGGTKVEIKR

Experiments:
hANGPTL3(17-460)-His [1] = molecular target: T1, hANGPTL3(17-460)-His; assay: Biacore cross-competition, 25C; first antibody at 25 µg/ml on captured antigen
Experimental: (§1) Cross competition experiments were performed at 25° C. on a Biacore essentially as described in Example 3 above. […] The results are shown in Table 8 with binding response for the first antibody (mAb1), followed by binding response of the second antibody (mAb2) on the ANGPTL3 surface pre-loaded with the first antibody. Numbers in bold indicate that the antibody pairs are able to bind to hANGPTL3 simultaneously. Numbers in italics indicate that that the antibody pairs are able to bind to hANGPTL3 simultaneously when added sequentially in one direction but not the other. Brackets indicate self-self competition.

hANGPTL3(17-460)-His [2] = molecular target: T1, hANGPTL3(17-460)-His; assay: SPR Biacore, antigen captured, 25C, pH 7.4, HBS-EP
Experimental: (§2) All kinetic binding experiments were performed at 25° C. or 37° C. on a BIACORE™ T200 label-free molecular interaction instrument (GE Healthcare) using a CM5 sensor chip. Briefly, an antigen capture surface was generated by covalently coupling either an anti-mouse IgG-specific antibody (anti-mFc; GE Healthcare; catalog #BR-1008-38) or an anti-pentahistidine-specific antibody (Qiagen; catalog #34660) to the surface of a CM5 sensor chip using a standard amine coupling method.

hANGPTL3(17-169)-mFc = molecular target: T2, hANGPTL3(17-169)-mFc; assay: SPR Biacore, antigen captured, 25C, pH 7.4, HBS-EP
Experimental: as §2

hANGPTL3(17-460)-His [3] = molecular target: T1, hANGPTL3(17-460)-His; assay: Biacore cross-competition; second antibody after pre-loading with competitor H4H1292P
Experimental: as §1

hANGPTL3(17-460)-His [4] = molecular target: T1, hANGPTL3(17-460)-His; assay: SPR Biacore, antigen captured, 37C, pH 7.4, HBS-EP
Experimental: as §2

mANGPTL3(17-455)-His = molecular target: B2; assay: SPR Biacore, antigen captured, 37C, pH 7.4, HBS-EP
Experimental: as §2

hANGPTL3(17-460)-His [5] = molecular target: T1, hANGPTL3(17-460)-His; assay: Biacore cross-competition; second antibody after pre-loading with Negative Control
Experimental: as §1

hANGPTL3(17-460)-His [6] = molecular target: T1, hANGPTL3(17-460)-His; assay: Biacore cross-competition; second antibody after pre-loading with competitor H4H1279P
Experimental: as §1

hANGPTL3(17-460)-His [7] = molecular target: T1, hANGPTL3(17-460)-His; assay: Biacore cross-competition; second antibody after pre-loading with competitor H1M896N
Experimental: as §1

bovine LPL = molecular target: T3, bovine LPL; assay: cell-based or functional assay
hANGPTL3(17-460)-His [8] = molecular target: T1, hANGPTL3(17-460)-His; assay: Biacore cross-competition; second antibody after pre-loading with competitor H4H1250P
Experimental: as §1

| Binder | mAb1 binding response (RU) (hANGPTL3(17-460)-His [1]) | Kd (hANGPTL3(17-460)-His [2]) | koff (hANGPTL3(17-460)-His [2]) | kon (hANGPTL3(17-460)-His [2]) | t1/2 (hANGPTL3(17-460)-His [2]) | Kd (hANGPTL3(17-169)-mFc) | koff (hANGPTL3(17-169)-mFc) | kon (hANGPTL3(17-169)-mFc) | t1/2 (hANGPTL3(17-169)-mFc) | mAb2 binding response (RU) (hANGPTL3(17-460)-His [3]) | Kd (hANGPTL3(17-460)-His [4]) | koff (hANGPTL3(17-460)-His [4]) | kon (hANGPTL3(17-460)-His [4]) | t1/2 (hANGPTL3(17-460)-His [4]) | Kd (mANGPTL3(17-455)-His) | koff (mANGPTL3(17-455)-His) | kon (mANGPTL3(17-455)-His) | t1/2 (mANGPTL3(17-455)-His) | mAb2 binding response (RU) (hANGPTL3(17-460)-His [5]) | mAb2 binding response (RU) (hANGPTL3(17-460)-His [7]) | further results |
| --- | --- | --- | --- | --- | --- | --- | --- | --- | --- | --- | --- | --- | --- | --- | --- | --- | --- | --- | --- | --- | --- |
| B1 | 210 RU | 0.726 nM | 0.000657 s⁻¹ | 904000 M⁻¹ s⁻¹ | 18 min | 0.519 nM | 0.000651 s⁻¹ | 1.25e+06 M⁻¹ s⁻¹ | 18 min | 220 RU | 0.324 nM | 0.00113 s⁻¹ | 3.5e+06 M⁻¹ s⁻¹ | 10 min | 0.486 nM | 0.00155 s⁻¹ | 3.18e+06 M⁻¹ s⁻¹ | 7 min | 187 RU | -4 RU | mAb2 binding response (RU) (hANGPTL3(17-460)-His [6]): 213 RU |
| B2 |  |  |  |  |  |  |  |  |  |  |  |  |  |  |  |  |  |  |  |  | EC50 (nM), inhibition of LPL activity (bovine LPL): 33 nM |
| B3 |  |  |  |  |  |  |  |  |  |  |  |  |  |  |  |  |  |  |  |  | EC50 (nM), inhibition of LPL activity (bovine LPL): 0.2 nM |
| B4 | 45 RU | 0.394 nM | 0.000114 s⁻¹ | 288000 M⁻¹ s⁻¹ | 102 min | 0.00841 nM | 5.53e-06 s⁻¹ | 658000 M⁻¹ s⁻¹ | 2090 min | -3 RU | 0.381 nM | 0.00181 s⁻¹ | 4.74e+06 M⁻¹ s⁻¹ | 6 min | 0.167 nM | 0.000359 s⁻¹ | 2.15e+06 M⁻¹ s⁻¹ | 32 min | 47 RU | 47 RU | mAb2 binding response (RU) (hANGPTL3(17-460)-His [8]): 9 RU |
| B5 | 48 RU | 0.727 nM | 0.000248 s⁻¹ | 341000 M⁻¹ s⁻¹ | 47 min | 0.257 nM | 0.000177 s⁻¹ | 686000 M⁻¹ s⁻¹ | 65 min |  | 1.02 nM | 0.00194 s⁻¹ | 1.89e+06 M⁻¹ s⁻¹ | 6 min | 0.38 nM | 0.00149 s⁻¹ | 3.92e+06 M⁻¹ s⁻¹ | 8 min | 48 RU | 50 RU | mAb2 binding response (RU) (hANGPTL3(17-460)-His [8]): 8 RU; mAb2 binding response (RU) (hANGPTL3(17-460)-His [6]): -1 RU |
